Publication doi:10.1101/2022.02.08.479534, “FoxP3 can fold into two distinct dimerization states with divergent functional implications for T cell homeostasis” (bioRxiv, 2022)
Changes are numbered by the printed parent chain. Numbers in names are those of the source.

B1: NusA-tagged FoxP3^forkhead (domain or fragment, mouse, UniProt Q99JB6 336-423, looked up)
chain: MRPPFTYATLIRWAILEAPERQRTLNEIYHWFTRMFAYFRNHPATWKNAIRHNLSLHKCFVRVESEKGAVWTVDEFEFRKKRSQRPNK
notes: FoxP3, mouse, forkhead domain, residues 336-423; NusA (60 kDa) kept for SEC-MALS; also called isolated FoxP3 forkhead; source: E. coli BL21(DE3), purified (Ni-NTA, Superdex 200), HRV3C cleavage omitted; not shown: His6, N-terminal, kept; NusA, N-terminal, kept
B2: FoxP3^forkhead C394S T368C (swap dimer-specific X-linking construct) (domain or fragment, mouse, UniProt Q99JB6 336-423, looked up)
chain: B1 chain with T33C, C59S
notes: FoxP3, mouse, forkhead, residues 336-423 with C394S and T368C; source: E. coli BL21(DE3), purified (Ni-NTA, HRV3C cleavage, Superdex 75); not shown: His6, N-terminal, cleaved; NusA, N-terminal, cleaved
B3: GST-tagged Runx1 (residue 371-451) (domain or fragment, mouse, UniProt Q03347 371-451, looked up)
chain: GSPSYHLYYGASAGSYQFSMVGGERSPPRILPPCTNASTGAALLNPSLPSQSDVVETEGSHSNSPTNMPPARLEEAVWRPY
notes: cloned into pGEX-6P-1; also called Runx1^ΔN; source: E. coli BL21(DE3), purified (Ni-NTA, Superdex 200)
B4: NusA-tagged FoxP3^RBR-forkhead R337Q (domain or fragment, mouse, UniProt Q99JB6 284-423, looked up)
chain: TSTQGSVLPAWSAPREAPDGGLFAVRRHLWGSHGNSSFPEFFHNMDYFKYHNMQPPFTYATLIRWAILEAPERQRTLNEIYHWFTRMFAYFRNHPATWKNAIRHNLSLHKCFVRVESEKGAVWTVDEFEFRKKRSQRPNK
notes: FoxP3, mouse, RBR-forkhead, residues 284-423 with the IPEX mutation R337Q; R337Q is a mutation of human IPEX patients, here put into the mouse protein; also called R337Q FoxP3^RBR-forkhead; FoxP3^RBR-forkhead with R337Q; source: E. coli BL21(DE3), purified (Ni-NTA, Superdex 200), HRV3C cleavage omitted; not shown: His6, N-terminal, kept; NusA, N-terminal, kept
B5: NusA-tagged FoxP3^RBR-forkhead Y373V (domain or fragment, mouse, UniProt Q99JB6 284-423, looked up)
chain: B4 chain with Q54R, Y90V
notes: FoxP3, mouse, RBR-forkhead, residues 284-423 with the IPEX mutation Y373V; Y373V is a mutation of human IPEX patients, here put into the mouse protein; also called Y373V FoxP3^RBR-forkhead; source: E. coli BL21(DE3), purified (Ni-NTA, Superdex 200), HRV3C cleavage omitted; not shown: His6, N-terminal, kept; NusA, N-terminal, kept
B6: NusA-tagged FoxP3^ΔN (domain or fragment, mouse, UniProt Q99JB6 188-423, looked up)
chain: GSYPLLANGVCKWPGCEKVFEEPEEFLKHCQADHLLDEKGKAQCLLQREVVQSLEQQLELEKEKLGAMQAHLAGKMALAKAPSVASMDKSSCCIVATSTQGSVLPAWSAPREAPDGGLFAVRRHLWGSHGNSSFPEFFHNMDYFKYHNMRPPFTYATLIRWAILEAPERQRTLNEIYHWFTRMFAYFRNHPATWKNAIRHNLSLHKCFVRVESEKGAVWTVDEFEFRKKRSQRPNK
notes: FoxP3, mouse, ZF, CC, RBR and forkhead, residues 188-423; source: E. coli BL21(DE3), purified (Ni-NTA, Superdex 200), HRV3C cleavage omitted; not shown: His6, N-terminal, kept; NusA, N-terminal, kept

Columns and labels:
[1] = biological target: the molecule itself; assay: SEC-MALS; NusA-fused proteins on Superdex 200 Increase 10/300; 20 mM Tris pH 7.5, 500 mM NaCl, 2 mM DTT; miniDAWN MALS and Optilab dRI detectors
[2] = biological target: the molecule itself; assay: cross-linking; 2 μM FoxP3^forkhead with 100 μM BMOE in 1x PBS, 1 h at 25°C, quenched with 10 mM DTT; SDS-PAGE, Krypton stain
[3] = biological target: T1, MBP-tagged FoxP3^RBR-forkhead (mouse, UniProt Q99JB6 284-423); assay: pull-down; MBP pull-down: MBP-FoxP3^RBR-forkhead 1 μM with GST-Runx1(371-451) 0.5 μM, with or without 2 μM DNA (IR-FKHM^4g or single FKHM), 30 min at room temperature in RIPA buffer; settings: both partners purified
T1 construct: FoxP3, mouse, RBR-forkhead, residues 284-423; cloned into a modified pMAL-c2 vector; also called MBP-FoxP3^RBR-forkhead; His6-MBP fused FoxP3^RBR-forkhead; source: E. coli BL21(DE3), purified (Ni-NTA, Superdex 200)
T1 sequence (looked up): B4 chain with Q54R

Binder	stoichiometry N [1]	further results
B1	2	–
B2	–	binding result [2]: binds
B3	–	binding result [3]: binds
B4	2	–
B5	4	–
B6	2	–
